Measured values published in patent US9677045B2, “Microorganisms and methods for production of 4-hydroxybutyrate, 1,4-butanediol and related compounds” (priority 2012, dated 2017).
Like-named read-outs stand apart in the source and are kept apart here. Marks after values point to notes of the source that are not given here.

Assays:
[1] = tested on: alcohol dehydrogenase from Brevibacterium sp KU; conditions: oxidation of alcohols; activity of 2-phenylethanol taken as 100%; cited from earlier work
[2] = tested on: alcohol dehydrogenase from Brevibacterium sp KU 1309; conditions: reduction of carbonyl compounds; cited from earlier work
[3] = cytoplasmic pH, typically 7.4; cited from earlier work
[4] = target: T1, L(+)-lactate dehydrogenase from A. eutrophus (R. eutropha ldhA) (Cupriavidus necator, UniProt Q07251); conditions: compared with that on pyruvate; cited from earlier work
T1 sequence (Q07251 1-349): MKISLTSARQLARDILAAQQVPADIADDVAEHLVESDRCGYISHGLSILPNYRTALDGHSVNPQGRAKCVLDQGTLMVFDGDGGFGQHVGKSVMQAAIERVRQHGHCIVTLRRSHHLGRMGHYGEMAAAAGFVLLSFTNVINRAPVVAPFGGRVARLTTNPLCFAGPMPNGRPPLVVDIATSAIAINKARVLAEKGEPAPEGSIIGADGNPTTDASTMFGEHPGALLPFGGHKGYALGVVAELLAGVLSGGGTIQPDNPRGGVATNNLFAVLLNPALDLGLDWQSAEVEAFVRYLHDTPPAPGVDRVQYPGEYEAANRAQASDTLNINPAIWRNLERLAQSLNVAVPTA

[5] = tested on: cytochrome oxidases from E. coli; conditions: cited from earlier work; for Km: read-out: Km for O2
[6] = tested on: NADH dehydrogenases and cytochrome oxidases; conditions: aerobic growth, from Noguchi et al., 2004, cited from earlier work
[7] = host strain ECKh-432 with pZS*13S plasmid, culture supernatant, micro-aerobic

Protocol for 1,4-butanediol pathway: Ten mL micro-aerobic cultures were started by inoculating fresh minimal in vivo conversion medium (see below) containing the appropriate antibiotics with 1% of the first cultures.
Microaerobic conditions were established by initially flushing capped anaerobic bottles with nitrogen for 5 minutes, then piercing the septum with an 18G needle following inoculation. The needle was kept in the bottle during growth to allow a small amount of air to enter the bottles. Protein expression was induced with 0.2 mM IPTG when the culture reached mid-log growth phase. This is considered: time=0 hr.

C[C@@H](CO)c1ccccc1 [(R)-2-Phenylpropanol]
Relative Activity [1]: 63 0%

CC(O)c1ccccc1 (centres unmarked) [1-Phenylethanol]
Relative Activity [1]: 46 0%

CC(C=O)c1ccccc1 (centres unmarked) [2-Phenylpropionaldehyde]
Km [2]: 864 µM

CCCCCCCCCCCCO [Sample 1-Dodecanol, 1-Dodecanol]
Relative Activity [1]: 68 0%

O=C1CCCO1 [GBL, γ-butyrolactone]
lactone/hydroxyacid equilibrium [3]: hydrolysis of the GBL lactone is favored

O=CC(=O)O [Glyoxylate]
Activity (%) of L(+)-lactate dehydrogenase from A. eutrophus [4]: 8.7%

CCC(C)C(=O)C(=O)O (centres unmarked) [3-Methyl-2-oxovalerate]
Activity (%) of L(+)-lactate dehydrogenase from A. eutrophus [4]: 5.3%

CC(C)O [Sample 2-Propanol, 2-Propanol]
Relative Activity [1]: 54 0%

O=CCc1ccccc1 [Phenylacetaldehyde]
Km [2]: 261 µM

CCO [Ethanol]
Relative Activity [1]: 76 0%

CC(C)CC(=O)C(=O)O [4-Methyl-2-oxopentanoate]
Activity (%) of L(+)-lactate dehydrogenase from A. eutrophus [4]: 39.0%

cytochrome bd oxidase: E. coli cytochrome bd oxidase (cyd operon)
Km [5]: 0.01 µM

B1: GNM_720: car gene, carboxylic acid reductase from Nocardia iowensis (protein, listed as Nocardia iowensis)
chain: MAVDSPDERLQRRIAQLFAEDEQVKAARPLEAVSAAVSAPGMRLAQIAATVMAGYADRPAAGQRAFELNTDDATGRTSLRLLPRFETITYRELWQRVGEVAAAWHHDPENPLRAGDFVALLGFTSIDYATLDLADIHLGAVTVPLQASAAVSQLIAILTETSPRLLASTPEHLDAAVECLLAGTTPERLVVFDYHPEDDDQRAAFESARRRLADAGSLVIVETLDAVRARGRDLPAAPLFVPDTDDDPLALLIYTSGSTGTPKGAMYTNRLAATMWQGNSMLQGNSQRVGINLNYMPMSHIAGRISLFGVLARGGTAYFAAKSDMSTLFEDIGLVRPTEIFFVPRVCDMVFQRYQSELDRRSVAGADLDTLDREVKADLRQNYLGGRFLVAVVGSAPLAAEMKTFMESVLDLPLHDGYGSTEAGASVLLDNQIQRPPVLDYKLVDVPELGYFRTDRPHPRGELLLKAETTIPGYYKRPEVTAEIFDEDGFYKTGDIVAELEHDRLVYVDRRNNVLKLSQGEFVTVAHLEAVFASSPLIRQIFIYGSSERSYLLAVIVPTDDALRGRDTATLKSALAESIQRIAKDANLQPYEIPRDFLIETEPFTIANGLLSGIAKLLRPNLKERYGAQLEQMYTDLATGQADELLALRREAADLPVLETVSRAAKAMLGVASADMRPDAHFTDLGGDSLSALSFSNLLHEIFGVEVPVGVVVSPANELRDLANYIEAERNSGAKRPTFTSVHGGGSEIRAADLTLDKFIDARTLAAADSIPHAPVPAQTVLLTGANGYLGRFLCLEWLERLDKTGGTLICVVRGSDAAAARKRLDSAFDSGDPGLLEHYQQLAARTLEVLAGDIGDPNLGLDDATWQRLAETVDLIVHPAALVNHVLPYTQLFGPNVVGTAEIVRLAITARRKPVTYLSTVGVADQVDPAEYQEDSDVREMSAVRVVRESYANGYGNSKWAGEVLLREAHDLCGLPVAVFRSDMILAHSRYAGQLNVQDVFTRLILSLVATGIAPYSFYRTDADGNRQRAHYDGLPADFTAAAITALGIQATEGFRTYDVLNPYDDGISLDEFVDWLVESGHPIQRITDYSDWFHRFETAIRALPEKQRQASVLPLLDAYRNPCPAVRGAILPAKEFQAAVQTAKIGPEQDIPHLSAPLIDKYVSDLELLQLL
BDO formation in ECKh-432 (1,4-butanediol pathway): required for BDO formation | ETOHEnz (ethanol) (1,4-butanediol pathway; [7]): >LLOQ | GBL (gamma-butyrolactone) (1,4-butanediol pathway; [7]): 0.07 mM | LA (lactate) (1,4-butanediol pathway; [7]): 0.10 mM | SA (succinate) (1,4-butanediol pathway; [7]): 0.00 mM

B2: NDH-2 (protein, UniProt P00393 2-434, looked up)
Type II NADH:quinone …: TTPLKKIVIVGGGAGGLEMATQLGHKLGRKKKAKITLVDRNHSHLWKPLLHEVATGSLDEGVDALSYLAHARNHGFQFQLGSVIDIDREAKTITIAELRDEKGELLVPERKIAYDTLVMALGSTSNDFNTPGVKENCIFLDNPHQARRFHQEMLNLFLKYSANLGANGKVNIAIVGGGATGVELSAELHNAVKQLHSYGYKGLTNEALNVTLVEAGERILPALPPRISAAAHNELTKLGVRVLTQTMVTSADEGGLHTKDGEYIEADLMVWAAGIKAPDFLKDIGGLETNRINQLVVEPTLQTTRDPDIYAIGDCASCPRPEGGFVPPRAQAAHQMATCAMNNILAQMNGKPLKNYQYKDHGSLVSLSNFSTVGSLMGNLTRGSMMIEGRIARFVYISLYRMHQIALHGYFKTGLMMLVGSINRVIRPRLKLH
Concentrations of NADH dehydrogenases and cytochrome oxidase ([6]; Limited glucose (early stationary)): 0.70 ± 0.03 μmol/s/mg of protein | Concentrations of NADH dehydrogenases and cytochrome oxidase ([6]; Standard glucose (early stationary: 8 h)): 0.88 ± 0.01 μmol/s/mg of protein | Concentrations of NADH dehydrogenases and cytochrome oxidase ([6]; Standard glucose (exponential: 3 h)): 1.11 ± 0.06 μmol/s/mg of protein | Concentrations of NADH dehydrogenases and cytochrome oxidase ([6]; Standard glucose (exponential: 5 h)): 0.86 ± 0.03 μmol/s/mg of protein

B3: cytochrome bo oxidase: E. coli cytochrome bo oxidase (cyo operon) (protein, UniProt P0ABJ1 25-315; P0ABI8 1-663; P0ABJ3 1-204; P0ABJ6 1-109, looked up)
Cytochrome bo(3) ubiquinol … 1: CNSALLDPKGQIGLEQRSLILTAFGLMLIVVIPAILMAVGFAWKYRASNKDAKYSPNWSHSNKVEAVVWTVPILIIIFLAVLTWKTTHALEPSKPLAHDEKPITIEVVSMDWKWFFIYPEQGIATVNEIAFPANTPVYFKVTSNSVMNSFFIPRLGSQIYAMAGMQTRLHLIANEPGTYDGISASYSGPGFSGMKFKAIATPDRAAFDQWVAKAKQSPNTMSDMAAFEKLAAPSEYNQVEYFSNVKPDLFADVINKFMAHGKSMDMTQPEGEHSAHEGMEGMDMSHAESAH
Cytochrome bo(3) ubiquinol … 2: MFGKLSLDAVPFHEPIVMVTIAGIILGGLALVGLITYFGKWTYLWKEWLTSVDHKRLGIMYIIVAIVMLLRGFADAIMMRSQQALASAGEAGFLPPHHYDQIFTAHGVIMIFFVAMPFVIGLMNLVVPLQIGARDVAFPFLNNLSFWFTVVGVILVNVSLGVGEFAQTGWLAYPPLSGIEYSPGVGVDYWIWSLQLSGIGTTLTGINFFVTILKMRAPGMTMFKMPVFTWASLCANVLIIASFPILTVTVALLTLDRYLGTHFFTNDMGGNMMMYINLIWAWGHPEVYILILPVFGVFSEIAATFSRKRLFGYTSLVWATVCITVLSFIVWLHHFFTMGAGANVNAFFGITTMIIAIPTGVKIFNWLFTMYQGRIVFHSAMLWTIGFIVTFSVGGMTGVLLAVPGADFVLHNSLFLIAHFHNVIIGGVVFGCFAGMTYWWPKAFGFKLNETWGKRAFWFWIIGFFVAFMPLYALGFMGMTRRLSQQIDPQFHTMLMIAASGAVLIALGILCLVIQMYVSIRDRDQNRDLTGDPWGGRTLEWATSSPPPFYNFAVVPHVHERDAFWEMKEKGEAYKKPDHYEEIHMPKNSGAGIVIAAFSTIFGFAMIWHIWWLAIVGFAGMIITWIVKSFDEDVDYYVPVAEIEKLENQHFDEITKAGLKNGN
Cytochrome bo(3) ubiquinol … 3: MATDTLTHATAHAHEHGHHDAGGTKIFGFWIYLMSDCILFSILFATYAVLVNGTAGGPTGKDIFELPFVLVETFLLLFSSITYGMAAIAMYKNNKSQVISWLALTWLFGAGFIGMEIYEFHHLIVNGMGPDRSGFLSAFFALVGTHGLHVTSGLIWMAVLMVQIARRGLTSTNRTRIMCLSLFWHFLDVVWICVFTVVYLMGAM
Cytochrome bo(3) ubiquinol … 4: MSHSTDHSGASHGSVKTYMTGFILSIILTVIPFWMVMTGAASPAVILGTILAMAVVQVLVHLVCFLHMNTKSDEGWNMTAFVFTVLIIAILVVGSIWIMWNLNYNMMMH
Km [5]: ~1 µM

B4: Cytochrome bo (protein, UniProt P0ABJ1 25-315; P0ABI8 1-663; P0ABJ3 1-204; P0ABJ6 1-109, looked up)
Cytochrome bo(3) ubiquinol … 1: CNSALLDPKGQIGLEQRSLILTAFGLMLIVVIPAILMAVGFAWKYRASNKDAKYSPNWSHSNKVEAVVWTVPILIIIFLAVLTWKTTHALEPSKPLAHDEKPITIEVVSMDWKWFFIYPEQGIATVNEIAFPANTPVYFKVTSNSVMNSFFIPRLGSQIYAMAGMQTRLHLIANEPGTYDGISASYSGPGFSGMKFKAIATPDRAAFDQWVAKAKQSPNTMSDMAAFEKLAAPSEYNQVEYFSNVKPDLFADVINKFMAHGKSMDMTQPEGEHSAHEGMEGMDMSHAESAH
Cytochrome bo(3) ubiquinol … 2: MFGKLSLDAVPFHEPIVMVTIAGIILGGLALVGLITYFGKWTYLWKEWLTSVDHKRLGIMYIIVAIVMLLRGFADAIMMRSQQALASAGEAGFLPPHHYDQIFTAHGVIMIFFVAMPFVIGLMNLVVPLQIGARDVAFPFLNNLSFWFTVVGVILVNVSLGVGEFAQTGWLAYPPLSGIEYSPGVGVDYWIWSLQLSGIGTTLTGINFFVTILKMRAPGMTMFKMPVFTWASLCANVLIIASFPILTVTVALLTLDRYLGTHFFTNDMGGNMMMYINLIWAWGHPEVYILILPVFGVFSEIAATFSRKRLFGYTSLVWATVCITVLSFIVWLHHFFTMGAGANVNAFFGITTMIIAIPTGVKIFNWLFTMYQGRIVFHSAMLWTIGFIVTFSVGGMTGVLLAVPGADFVLHNSLFLIAHFHNVIIGGVVFGCFAGMTYWWPKAFGFKLNETWGKRAFWFWIIGFFVAFMPLYALGFMGMTRRLSQQIDPQFHTMLMIAASGAVLIALGILCLVIQMYVSIRDRDQNRDLTGDPWGGRTLEWATSSPPPFYNFAVVPHVHERDAFWEMKEKGEAYKKPDHYEEIHMPKNSGAGIVIAAFSTIFGFAMIWHIWWLAIVGFAGMIITWIVKSFDEDVDYYVPVAEIEKLENQHFDEITKAGLKNGN
Cytochrome bo(3) ubiquinol … 3: MATDTLTHATAHAHEHGHHDAGGTKIFGFWIYLMSDCILFSILFATYAVLVNGTAGGPTGKDIFELPFVLVETFLLLFSSITYGMAAIAMYKNNKSQVISWLALTWLFGAGFIGMEIYEFHHLIVNGMGPDRSGFLSAFFALVGTHGLHVTSGLIWMAVLMVQIARRGLTSTNRTRIMCLSLFWHFLDVVWICVFTVVYLMGAM
Cytochrome bo(3) ubiquinol … 4: MSHSTDHSGASHGSVKTYMTGFILSIILTVIPFWMVMTGAASPAVILGTILAMAVVQVLVHLVCFLHMNTKSDEGWNMTAFVFTVLIIAILVVGSIWIMWNLNYNMMMH
Vmax ([5]; from Bekker et al., 2009): 225^c mol O/mol cytochrome bd/s
